The values below come from the nanobody polyreactivity screen of Harvey et al. (2022).

A short description of this data set: yeast display, Sf9 membrane polyspecificity reagent, FACS + sequencing; frameworks hold sequencing errors. The method, boiled down:
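Polyreactivity labels are assigned by the sorting gate from which each nanobody was recovered. The gates were low and high (top ~1%), set on anti-HA fluorescence for expression and streptavidin fluorescence for reagent binding. Before sorting, galactose-induced (36–48 hours) yeast display cells were stained for 1 hour at 4 °C with 10% biotinylated, detergent-solubilized Sf9 membrane reagent.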
“QVQLVESGGGLVQAGGSLRLSCAASGNNLCRNAMGWYRQAPGKERELVATISSVGTYYADSVKGRFTISRDNAKNNVYVQMNSLKPEDTAVYSCNARGRRSGYISGYDYWGQGTQVTVSS”: the “polyreactivity (PSR sort gate)” value is reported as “high polyreactivity”. Next, “QVQLVESGGGLVQAGGSLRLSCAASGNTFDIYAMGWYIQAPGKERELVAAISRRGGSTYYAESVKGRFTISRDNAKNTVYLQLNSLKPEDTAVYYCNTVYATRYDYWGQGTQVTVSS”: “high polyreactivity”. Under “QVQLVESGGGLVQAGGSLRLSCAASGNTFDYYAMGWYRQAPGKERELVAAITRGGSTNYADSVKGRFTISRDNAKNTVYLQMNSLKPEDTAGYYCAAEQRAPRFADYDYWGQGTQVTVSS” stands “low polyreactivity”. Next, “QVQLVESGGGLVQAGGSLRLSCAASGNTFDYYDMGWYSQAPGKERELVAAGSGGSTYYADSVKGRFTISRDNAKHTVYLQMNSLKPEDTAVYYCAARDRYYFGGMYYWGQGTQVTVSS”: “low polyreactivity”. For “QVQLVESGGGLVQAGGSLRLSCAASGNTFEFYAMGWYRQAPGKERELVAAISASGGRTYYADSVKGRFTISRDNAKNTVYLQMNSLKPEDTAVYYCAAVRKSTRFDYWGQGTQVTVSS”, the “polyreactivity (PSR sort gate)” value is given as “high polyreactivity”.

For “QVQLVESGGGLVQAGGSLRLSCAASGNTFEYNAMGWYRQAPGKEREFVAAIDFSDGSTYYADSVKGRFTISRDNAKNTVYLQMNSLKPEDTAVYYCAGDYYSYFGNYYYWGQGTQVTVSS”, the “polyreactivity (PSR sort gate)” value is recorded as “high polyreactivity”. Next, “QVQLVESGGGLVQAGGSLRLSCAASGNTFFTYAMGWYRQAPGQERELVAVITSVGSTNYADSVKGLFTISRDNAKNTVYLQMNSLKPEDTAVYYCAAKGYRVYRYYRGRTYDYWGQGSQVTVSS”: “high polyreactivity”; “QVQLVESGGGLVQAGGSLRLSCAASGNTFGAYTMGWYRQAPGKEREFVAAISYSGGITFYADSVKGRFTISRDNAKNTVYLQMNSLKPEDTAVYYCAARTYRYGYWYDYWGQGTQVTVSS”: “high polyreactivity”. Regarding “QVQLVESGGGLVQAGGSLRLSCAASGNTFGPYAMGWYRQAPGKERELVAAITWTDTSTHYADSVKGRFTISRDNAKNTVYLQMNSLKPEDTAVYYCARVYYVNTYRYRAGYYYWGQRTQVTVSS”, the “polyreactivity (PSR sort gate)” value is “high polyreactivity”. As for “QVQLVESGGGLVQAGGSLRLSCAASGNTFGYNAMGWYRQAPGKERELVASITWSGGSTYYADSVKGRFTISRDNAKNTVYLQMNSLKPEDTAVYYCNADVRFDYWGQGTQVTVSS”, the “polyreactivity (PSR sort gate)” value was “low polyreactivity”.

For the sequence “QVQLVESGGGLVQAGGSLRLSCAASGNTFGYYAMGWYRQAPGKERELVAAITSSGGRTYYADSVKGRFTISRDNAKNTVYLQMNSLKPEDTAVYYCAAGRVGARYPTYRFYYWGQGTQVTVSS”, the “polyreactivity (PSR sort gate)” value is “high polyreactivity”. Next, “QVQLVESGGGLVQAGGSLRLSCAASGNTFHTYTMGWYRQAPGKERELVAVITRSGGRTYYADSVKGRFTISRDNAKNTVYLQMNSLKPEDTAVYYCAVLGAGQTWLDYWGQGTQVTVSS”: “high polyreactivity”. Under “QVQLVESGGGLVQAGGSLRLSCAASGNTFKVYVMGWYRQAPGKERELVAAISRRGGNTYYADSVKGRFTISRDNAKNTVYLQMNSLKPEDTAVYYCAAYRAPYYEYDYWGQGTQVTVSS” stands “high polyreactivity”; under “QVQLVESGGGLVQAGGSLRLSCAASGNTFKYYAMGWYRQAPGKERELVAAISYSGGSTYYADSVKGRFTISRDNAKNTVYLLMNSLKPEVTAVYYCAADLDSERYYWGQGTQVTVSS”, “low polyreactivity”; under “QVQLVESGGGLVQAGGSLRLSCAASGNTFLVNAKGWYRQAPGKERELVATIRRGGSTNYADSVKGRFTISRDNAKNTVYLLMNSLKPEDTAVYYCNADRVGYWSSNMDYWGQGTEVTVSS”, “low polyreactivity”. Next, “QVQLVESGGGLVQAGGSLRLSCAASGNTFPAYAMGWYRQAPGKERELVATISWSTGSTNYADSVKGRFTISRDIAKNTVYLQMNSLKPEDTAVYYCNKELYDFKDRNLKAFLLRIFDSWGQGTQVTVSS”: “low polyreactivity”; “QVQLVESGGGLVQAGGSLRLSCAASGNTFPFNAMGWYRQAPGKERELVAAISRGGSTYYADSVKGRFTISRDNAKNTVYLQMNSLKPEDTAVYYCAVSAGKRRLDYWGQGTQVTVSS”: “high polyreactivity”.

As to “QVQLVESGGGLVQAGGSLRLSCAASGNTFPTYAMGWYRQAHGKERELVAAINKRGSNTYYADSVKGRFTISRDNAKNTVYLQMNSLKPEDTADYYARAAGEYDYWGQGTQVTVSS”, the “polyreactivity (PSR sort gate)” value is “high polyreactivity”.

On to “QVQLVESGGGLVQAGGSLRLSCAASGNTFPWYAMGWSRQAPGKERELVAAINSGGRTNYADSVKGRFTISRDNAKNTVYLQMNSLKQEDTAVYYCAAAFDWGLYCFDYWGQGTQVTVSS”, for which the “polyreactivity (PSR sort gate)” value is listed as “high polyreactivity”. Under “QVQLVESGGGLVQAGGSLRLSCAASGNTFREYTMGWYRQAPGKERELVAGISGSGGRTYYADSVKGRFTISRDNAKNTVYLQMNSLKPEDTAVYYCYARWYYGIGYNYWGQGTQVTVSS” stands “high polyreactivity”; under “QVQLVESGGGLVQAGGSLRLSCAASGNTFRLYAMGWYRQAPGKERELVATITSGVSTNYADSVKGRFTISRDNAKNTVYLQMNSLKPEDTAVYYCAARHYYTYSSGFGRYIYTEYYWGQGTQVTVSS”, “low polyreactivity”; under “QVQLVESGGGLVQAGGSLRLSCAASGNTFRRNVMGWYRQAPGKERELVAAINRGGSTTYADSVKGRFTISRDNAKNTVYLQMNSLKAEDTAVYYCNARTLFKWRHGHYYAYDYWGQGTQVTVSS”, “high polyreactivity”. Next, “QVQLVESGGGLVQAGGSLRLSCAASGNTFRSYAMGWYRQAPGKERELVAAISGRGGSTYYADSVKGRFTISRDNAKNTVDLQMNSRKPEDTAVYYCAAESRRVNYANDYWGQGTQVTVSS”: “high polyreactivity”; “QVQLVESGGGLVQAGGSLRLSCAASGNTFRSYVMGWYRPAPGKARELVADISSGDGTNYADSVKGRFTISRDTAKNTVYLQMNSLKPEDTAVYYCAKDVYNFRSTHSYFTGYVSWGQGTQVTVSW”: “low polyreactivity”. Turning to “QVQLVESGGGLVQAGGSLRLSCAASGNTFRSYVMGWYRQAPGKERELVAVITKSGGSTYYADSVKGRFTISRDNAKNTVYLQMNSLKPEDTAVYYCAADRPAYGVGYWGQGTQVTVSS”, the “polyreactivity (PSR sort gate)” value is “high polyreactivity”.

For the sequence “QVQLVESGGGLVQAGGSLRLSCAASGNTFRWYDMGGYRQAPGKERELVAAITSSGSTTYYADSVKGRFTISRDNAKNTVYLQMNSLKPEDTAVYYCAAEDHYEGYGGYYWGHGTQVTVSS”, the “polyreactivity (PSR sort gate)” value is “low polyreactivity”. Under “QVQLVESGGGLVQAGGSLRLSCAASGNTFRYNAMGWYRQAPWKERELVAAISRRGGSTYYADSVKGRFTISRDNAKNTVYLQMNSLKPEDTAVYYCNAGRTAENEYWGQGTQVTVSS” stands “high polyreactivity”.

For the sequence “QVQLVESGGGLVQAGGSLRLSCAASGNTFRYNTMGWYRQAPGKERELVAVITRRGSSTYYADSVKGRFTISRDNAKNTVYLQMNSLKPEDTAVYYCAAAPYYVTLVTRRDYWGQGTQVTVSS”, the “polyreactivity (PSR sort gate)” value is given as “high polyreactivity”. Under “QVQLVESGGGLVQAGGSLRLSCAASGNTFRYYAMGWYRQAPGKERELVAAISRNGGSTYADSVKGRFTISRDNAKNTVYLQMNSLKPEDTAVYYCNAYRIRPGTPYGKGYYYWGQGTQVTVSS” stands “high polyreactivity”. Regarding “QVQLVESGGGLVQAGGSLRLSCAASGNTFSNYAMGWYRQAPGKEREFVAAIRKSGASTYYADSVKGRFTISRDNAKNSVYLQMNSLKPEDTAVYYCAADGQVSFALGFDYWGQGTQVTVSS”, the “polyreactivity (PSR sort gate)” value is given as “high polyreactivity”. For “QVQLVESGGGLVQAGGSLRLSCAASGNTFSPYAMGWYRQAPGKERELVAAITFRGGSTYYADSVKGRFTISRDNAKNTVYLQMNSLKPEDTAVYYCNAERGGWSGYFGYDYWGQGTQVTVSS”, the “polyreactivity (PSR sort gate)” value is reported as “low polyreactivity”. Next, “QVQLVESGGGLVQAGGSLRLSCAASGNTFSSYAMGWYRQAPGKERELVAAISRRGGSTYYADSVKGRFTISRDNAKNTVYLQMNSLKPEDTAVYYCAADGTGFRYLRYDYWGQGTQVTVSS”: “high polyreactivity”.

For “QVQLVESGGGLVQAGGSLRLSCAASGNTFSYYAMGWYRQAPGKERELVAAISWRGGSTYYADSVKGRFTISRDNAKNTVYLQMNSLKPEDTAVYYCAADLYWASLWYVGAAYGYEYWGQGTQVTVSS”, the “polyreactivity (PSR sort gate)” value is “low polyreactivity”. Under “QVQLVESGGGLVQAGGSLRLSCAASGNTFTAYAMGWYRQAPGKERELVAAISSSGRTNYADSVKGRFTISRDNAKNTVYLQMNSLKPEDTAVYYCAAYRLSKPFYKYDYWGEGTQVTVSS” stands “high polyreactivity”; under “QVQLVESGGGLVQAGGSLRLSCAASGNTFTTYAMGWYRQAPGKERELVAVISRSGGRTYYADSVKGRFTISRDNAKNTVYLQMNSLKPEDTAVYYCATRTYATSEYGYWGQGTQVTVSS”, “high polyreactivity”. For “QVQLVESGGGLVQAGGSLRLSCAASGNTFTWYTIGWYRQAPGKERELVAVITSDGSTYYADSVKGRFTISRDNAKNTVYLQMNSLKPEDTAVYYCNALSADWYPEVDYWGQGTQVTVSS”, the “polyreactivity (PSR sort gate)” value is reported as “low polyreactivity”. Under “QVQLVESGGGLVQAGGSLRLSCAASGNTFTWYTMGWYRQAPGKERELVAVITSDGSTYYADSVKGRFTISRDNAKNTVDLQMNSLKPEDTAVYYCNALSADWYPEEDYWGQGTQVTVSS” stands “low polyreactivity”; under “QVQLVESGGGLVQAGGSLRLSCAASGNTFTWYTMGWYRQAPGKERELVAVITSDGSTYYADSVKGRFTISRDNAKNTVYLQMNSLKPEDTAGYYCNALSADWYPEEDFWGQGTQVTVSS”, “low polyreactivity”; under “QVQLVESGGGLVQAGGSLRLSCAASGNTFTWYTMGWYRQAPGKERELVAVITSDGSTYYADSVKGRFTISRDNAKNTVYLQMNSLKPEDTAVYYCNARYLRLRYPYTDEYNYWGQGTQVTVSS”, “low polyreactivity”. Under “QVQLVESGGGLVQAGGSLRLSCAASGNTFVGYTMGWYRQAPGKEWELVAAISWNGGTTYYADSVKGRFTISRDNAKNTVYLQMNSLKPEDTAVYYCNTRWYTRRFDYWGQGTQVTVSS” stands “high polyreactivity”. Next, “QVQLVESGGGLVQAGGSLRLSCAASGNTFVSNAMGWYRPAPGKERELVAAINSGGSTNYADSVKGRFTISRDNAKNTVYLQMNSLKPEDTAVYYCNKYYDYPQRYWMDYWGQGTQVTVSS”: “low polyreactivity”.
